Assay results published in article PMC2577008, “The Transcriptional Repressor Protein NsrR Senses Nitric Oxide Directly via a [2Fe-2S] Cluster” (PLoS ONE, 2008).

Key:
[2Fe-2S] NsrR (holo) [1] = target: T1, [2Fe-2S] NsrR (holo) (Streptomyces coelicolor, UniProt Q9L132 1-148); assay: analytical ultracentrifugation (sedimentation equilibrium); [2Fe-2S] cluster; 2 uM DNA, 10 uM NsrR; mass 17.4 to 47.3 kDa, homodimer; EMSA: 10 mM Tris-HCl pH 7.5, 60 mM KCl, on ice 2 min, ~20 ng probe, NsrR diluted to 500 nM in 50 mM Tris pH 7.0 (legend: 50 mM Tris pH 7.0, 100 mM NaCl); AUC: 5; details: protein: recombinant; tags: none stated (pET21a; reverse primer includes the stop codon); chain copies: 2; blunt
T1 sequence: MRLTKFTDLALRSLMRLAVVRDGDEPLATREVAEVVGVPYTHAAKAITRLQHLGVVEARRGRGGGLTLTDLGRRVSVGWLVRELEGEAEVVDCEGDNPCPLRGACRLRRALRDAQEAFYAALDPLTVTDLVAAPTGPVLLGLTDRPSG

[2Fe-2S] NsrR (holo) [2] = target: T1, [2Fe-2S] NsrR (holo); assay: analytical ultracentrifugation (sedimentation equilibrium); [2Fe-2S] cluster; 2 uM DNA, 10 uM NsrR; mass 45.0 kDa with NsrR; EMSA: 10 mM Tris-HCl pH 7.5, 60 mM KCl, on ice 2 min, ~20 ng probe, NsrR diluted to 500 nM in 50 mM Tris pH 7.0 (legend: 50 mM Tris pH 7.0, 100 mM NaCl); AUC: 5; details: protein: recombinant; tags: none stated (pET21a; reverse primer includes the stop codon); chain copies: 2; blunt
[3] = target: the molecule itself; assay: AUC; sedimentation equilibrium at 16,000, 18,000 and 20,000 rpm, absorbance at 260 nm; 10 uM monomeric NsrR with 2 uM 30 bp double-stranded oligonucleotide (hmpA2 or hmpA1 binding site); 50 mM Tris pH 8.0 (legend: pH 7.0), 100 mM NaCl, 1 mM dithiothreitol; one-component fit; the mass of the DNA-protein complex is measured
[2Fe-2S] NsrR (holo) [4] = target: T1, [2Fe-2S] NsrR (holo); assay: analytical ultracentrifugation (sedimentation equilibrium); [2Fe-2S] cluster; 2 uM DNA, 10 uM NsrR; EMSA: 10 mM Tris-HCl pH 7.5, 60 mM KCl, on ice 2 min, ~20 ng probe, NsrR diluted to 500 nM in 50 mM Tris pH 7.0 (legend: 50 mM Tris pH 7.0, 100 mM NaCl); AUC: 5; details: protein: recombinant; tags: none stated (pET21a; reverse primer includes the stop codon); chain copies: 2; blunt

B1: hmpA2 30 bp oligonucleotide (dsDNA)
DNA 1: GGAAAACAAGCATCTGAGATCCCAGTTCGG
DNA 2: CCGAACTGGGATCTCAGATGCTTGTTTTCC
- binding result ([2Fe-2S] NsrR (holo) [1]): binds

B2: hmpA1 30 bp oligonucleotide (dsDNA)
DNA 1: CTAAAACACGAATATCATCTACCAATTAAG
DNA 2: CTTAATTGGTAGATGATATTCGTGTTTTAG
- binding result ([2Fe-2S] NsrR (holo) [2]): binds

B3: NsrR from Streptomyces coelicolor ([2Fe-2S] NsrR) (natural protein, UniProt Q9L132 1-148, looked up)
chain: MRLTKFTDLALRSLMRLAVVRDGDEPLATREVAEVVGVPYTHAAKAITRLQHLGVVEARRGRGGGLTLTDLGRRVSVGWLVRELEGEAEVVDCEGDNPCPLRGACRLRRALRDAQEAFYAALDPLTVTDLVAAPTGPVLLGLTDRPSG
notes: NsrR (SCO7427), Rrf2 family transcriptional repressor of Streptomyces coelicolor; nsrR gene amplified from genomic DNA with primers from the start codon (CATATG...) to the stop codon (TCA... on the reverse primer); calculated monomer mass 15.9 kDa; Carries a [2Fe-2S] cluster as purified (on average 28% cluster incorporation); also called SCO7427; holo [2Fe-2S]; NsrR
- stoichiometry N [3]: 2

B4: Control oligonucleotide (nsrR coding sequence) (dsDNA)
DNA 1: CCGCCTGCAGGCCCTGGGTGTG
DNA 2: CACACCCAGGGCCTGCAGGCGG
- binding result ([2Fe-2S] NsrR (holo) [4]): no binding
